Data as given in patent publication US20150203579A1.
Read-outs that look alike come from different tables or passages of the source.

Tests used:
[1] = biological target: dimeric biotinylated human PD-1 protein with a C-terminal human Fc tag (human); test: competition ELISA: 200 pM biot-hPD-1-hFc to coated hPD-L1-mFc; NBI
[2] = biological target: recombinant human PD-1 dimer expressed with a C-terminal mouse IgG2a Fc tag (human); test: competition ELISA: 1.5 nM hPD-1-mFc to coated hPD-L1-hFc; NBI
[3] = biological target: recombinant human PD-1 dimer expressed with a C-terminal mouse IgG2a Fc tag (human); test: competition ELISA: 100 pM hPD-1-mFc to coated hPD-L2-hFc; NBI
[4] = biological target: full length human PD-1 on HEK293/hPD-1 cells (human) (UniProt Q15116); test: FACS dose response, HEK293/hPD-1 cells; control
[5] = biological target: full length human PD-1 on HEK293/hPD-1 cells (human) (UniProt Q15116); test: FACS dose response, HEK293/hPD-1 cells; control; remark: listed apart in the source
[6] = biological target: PD-1 chimera: extracellular domain of human PD-1 with trans-membrane and cytoplasmic domains of human CD300a, on Jurkat/AP1-Luc cells (human) (UniProt Q9UGN4); test: cell-based or functional assay

Row | Max Geom. Mean MFI @ 100 nM [4] | Max Geom. Mean MFI @ 100 nM [5] | Substance | other results
1 |  |  | Isotype control 1 (antibody) | % blocking at 50 nM antibody [1]: 19%; % blocking at 200 nM antibody [2]: -3%
2 |  |  | Isotype control 2 (antibody) | % blocking at 100 nM antibody [3]: -27%
3 | 239 MFI | 352 MFI | mIgG2a isotype control (antibody) | 
4 | 200 MFI | 858 MFI | mIgG1 isotype control (antibody) | 
5 |  | 809 MFI | hIgG4 isotype control (antibody) | Emax mean [%] @ 100 nM [6]: 98%
